Assay results from publication PMC2693456.

Columns and labels:
[1] = biological target: heat shock cognate 70 (hsc70; hsp70 isoform 8) (UniProt P63018); assay: biotin-peptide streptavidin pull-down, LC-MS/MS; settings: reference: nonphospho-peptide
[2] = biological target: Heat Shock Protein 70 Isoform 2 (hsp70-2) (UniProt P14659); assay: biotin-peptide streptavidin pull-down, LC-MS/MS; settings: reference: nonphospho-peptide
[3] = biological target: Heat Shock Protein 70 Isoform 1 (hsp70-1); assay: biotin-peptide streptavidin pull-down, LC-MS/MS; settings: reference: nonphospho-peptide; sites S261
annexin II = annexin II (UniProt Q07936); assay: biotin-peptide streptavidin pull-down, LC-MS/MS; settings: reference: nonphospho-peptide
[4] = biological target: BiP (Grp78, hsp70 isoform 5) (UniProt P06761); assay: biotin-peptide streptavidin pull-down, LC-MS/MS; settings: reference: nonphospho-peptide
[5] = biological target: BiP (Grp78, hsp70 isoform 5) (UniProt P06761); assay: biotin-peptide streptavidin pull-down, immunoblot; settings: reference: nonphospho-peptide; sites S256

other: label-free MS quantification vs no-peptide control (Table 2) ([1]; sites S261)	other: label-free MS quantification vs no-peptide control (Table 2) ([2]; sites S261)	other: label-free MS quantification vs no-peptide control (Table 2) [3]	other: label-free MS quantification vs no-peptide control (Table 2) (annexin II; sites S261)	other: label-free MS quantification vs no-peptide control (Table 2) ([4]; sites S261)	other: label-free MS quantification vs no-peptide control (Table 2) ([1]; sites S256)	other: label-free MS quantification vs no-peptide control (Table 2) ([2]; sites S256)	other: label-free MS quantification vs no-peptide control (Table 2) (annexin II; sites S256)	other: label-free MS quantification vs no-peptide control (Table 2) ([4]; sites S256)	binding against the reference [5]	Substance
weaker; reference 5.70 ± 0.27	weaker; reference 4.17 ± 0.38	weaker; reference 3.41 ± 0.44	weaker; reference 3.19 ± 0.32	weaker; reference 2.13 ± 0.57	–	–	–	–	–	aquaporin-2 (AQP2) COOH-terminal peptide COOH-terminal tail (from UniProt P34080) pS261 peptide
–	–	–	–	–	weaker; reference 5.70 ± 0.27	weaker; reference 4.17 ± 0.38	weaker; reference 3.19 ± 0.32	stronger; reference 2.13 ± 0.57	stronger	aquaporin-2 (AQP2) COOH-terminal peptide COOH-terminal tail (from UniProt P34080) pS256 peptide
